Reference: article PMC7797052 (Nucleic Acids Research, 2020)
Residue numbers refer to the chain shown, from its start. In names and notes the source's numbering stands. Values belong to the binder of their own block, whether it stands above or below them.

Tests used:
[1] = target: X1BR2-GFP (C-terminal BRCT domain of XRCC1 fused to C-terminal GFP) (human, UniProt P18887 538-633); experiment: GFP-fluorescence-based competition binding assay
[2] = target: the molecule itself; experiment: SEC
[3] = target: the molecule itself; experiment: SAXS
[4] = target: T1, L3BR (residues 825-922) (human, UniProt P49916-3 825-922); experiment: native gel or EMSA
T1 sequence (looked up): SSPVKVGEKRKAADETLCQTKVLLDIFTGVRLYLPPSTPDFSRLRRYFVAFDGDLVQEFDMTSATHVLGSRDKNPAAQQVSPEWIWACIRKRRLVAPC

B1: MBP-L3BR^832 (C-terminal BRCT domain of DNA ligase IIIα, residues 832-922, N-terminal MBP fusion) (domain or fragment, human, UniProt P49916-3 832-922, looked up)
chain: EKRKAADETLCQTKVLLDIFTGVRLYLPPSTPDFSRLRRYFVAFDGDLVQEFDMTSATHVLGSRDKNPAAQQVSPEWIWACIRKRRLVAPC
EC50 [1]: 1240 nM
stoichiometry N [2]: 2

B2: L3BR^832 (untagged, residues 832-922 of DNA ligase IIIα) (domain or fragment, human, UniProt P49916-3 832-922, looked up)
chain: B1 chain
stoichiometry N [3]: 2

B3: L3BR^832 fused to C-terminal GFP (domain or fragment, human, UniProt P49916-3 832-922, looked up)
chain: B1 chain
stoichiometry N [2]: 2

B4: phosphorylated XRCC1ΔN (XRCC1ΔN-p, residues 294-633) (domain or fragment, human, UniProt P18887 294-633, looked up)
chain: AVTGKPRGEGTEPRRPRAGPEELGKILQGVVVVLSGFQNPFRSELRDKALELGAKYRPDWTRDSTHLICAFANTPKYSQVLGLGGRIVRKEWVLDCHRMRRRLPSQRYLMAGPGSSSEEDEASHSGGSGDEAPKLPQKQPQTKTKPTQAAGPSSPQKPPTPEETKAASPVLQEDIDIEGVQSEGQDNGAEDSGDTEDELRRVAEQKEHRLPPGQEENGEDPYAGSTDENTDSEEHQEPPDLPVPELPDFFQGKHFFLYGEFPGDERRKLIRYVTAFNGELEDYMSDRVQFVITAQEWDPSFEEALMDNPSLAFVRPRWIYSCNEKQKLLPHQLYGVVPQA
modifications: phosphorylated by casein kinase II (CK2) in the region between X1BR1 and X1BR2; sites not given
binding result [3]: binds

Further lines, results first:

EC50 [1]: 670 nM
B5: MBP-L3BR^844 (L3BR^832 lacking its 12 N-terminal residues, MBP fusion) (domain or fragment, human, UniProt P49916-3 844-922, looked up)
chain: TKVLLDIFTGVRLYLPPSTPDFSRLRRYFVAFDGDLVQEFDMTSATHVLGSRDKNPAAQQVSPEWIWACIRKRRLVAPC

binding result [4]: binds
B6: X1BR2 L626E (residues 538-633), designated wild type (WT) in Figure 1E (domain or fragment, human, UniProt P18887 538-633, looked up)
chain: ELPDFFQGKHFFLYGEFPGDERRKLIRYVTAFNGELEDYMSDRVQFVITAQEWDPSFEEALMDNPSLAFVRPRWIYSCNEKQKLLPHQEYGVVPQA

binding result [4]: binds
B7: X1BR2 F569A (on the L626E template, residues 538-633) (domain or fragment, human, UniProt P18887 538-633, looked up)
chain: B6 chain with F32A

binding result [4]: binds
B8: X1BR2 N570A (on the L626E template, residues 538-633) (domain or fragment, human, UniProt P18887 538-633, looked up)
chain: B6 chain with N33A

binding result [4]: binds
B9: X1BR2 Y565A (on the L626E template, residues 538-633) (domain or fragment, human, UniProt P18887 538-633, looked up)
chain: B6 chain with Y28A
